B1: NOTCH4 peptide 1606-1621 (Neurogenic locus notch homolog protein 4), 16-mer library wild type / NSP9 (ORF1ab Nsp9, residues 4141-4253) (parent complex)
chain 1: QGAWLGAPEPWEPLLD
chain 2: NNELSPVALRQMSCAAGTTQTACTDDNALAYYNTTKGGRFVLALLSDLQDLKWARFPKSDGTGTIYTELEPPCRFVTDTPKGPKVKYLYFIKGLNNLNRGMVLGSLAATVRLQ

The variants in the assay derive from B1. In words: bait immobilised on MaxiSorp plates (10 µg), library pre-cleared on GST, 2 h binding at 4 °C, five washes; one round per day, days 1-4; value from days 2 and 3.
Turning to chain 1 QGTWLGAPEPWEPLLD [chain 1 A3T], the screen value is 0.00113 average fractional NGS count over selection days 2 and 3 (reads of this peptide / all reads for the bait, averaged over ….

On to chain 1 QGAWLGAPEPWEPLKD [chain 1 L15K], for which the screen value is 0.00133 average fractional NGS count over selection days 2 and 3 (reads of this peptide / all reads for the bait, averaged over ….

As to chain 1 QGAWLGAPEPWEPLHD [chain 1 L15H], the screen value was 0.00012 average fractional NGS count over selection days 2 and 3 (reads of this peptide / all reads for the bait, averaged over ….

With chain 1 QGAWLGAPEPWEPLED [chain 1 L15E], the screen value was 0.00221 average fractional NGS count over selection days 2 and 3 (reads of this peptide / all reads for the bait, averaged over ….

Regarding chain 1 QGAWLGAPEPWEPLMD [chain 1 L15M], the screen value was 0.000609 average fractional NGS count over selection days 2 and 3 (reads of this peptide / all reads for the bait, averaged over ….

On to chain 1 QGAWLGAPEPWEPLSD [chain 1 L15S], for which the screen value was 0.00194 average fractional NGS count over selection days 2 and 3 (reads of this peptide / all reads for the bait, averaged over ….

As for chain 1 QGAWLGAPEPWEPLVD [chain 1 L15V], the screen value is 0.00299 average fractional NGS count over selection days 2 and 3 (reads of this peptide / all reads for the bait, averaged over ….

On to chain 1 QGAWLGAPEPWEPLAD [chain 1 L15A], for which the screen value is 0.00794 average fractional NGS count over selection days 2 and 3 (reads of this peptide / all reads for the bait, averaged over ….

For chain 1 QGAWLGAPEPWEPLTD [chain 1 L15T], the screen value is 0.00153 average fractional NGS count over selection days 2 and 3 (reads of this peptide / all reads for the bait, averaged over ….

In the case of chain 1 QGAWLGAPEPWEPLND [chain 1 L15N], the screen value was 0.00024 average fractional NGS count over selection days 2 and 3 (reads of this peptide / all reads for the bait, averaged over ….

As for chain 1 QGAWLGAPEDWEPLLD [chain 1 P10D], the screen value is 0.00968 average fractional NGS count over selection days 2 and 3 (reads of this peptide / all reads for the bait, averaged over ….

chain 1 QGAWLGAPEEWEPLLD [chain 1 P10E]: the screen value was 0.00264 average fractional NGS count over selection days 2 and 3 (reads of this peptide / all reads for the bait, averaged over ….

In the case of chain 1 QGAWLGAPEAWEPLLD [chain 1 P10A], the screen value was 0.000635 average fractional NGS count over selection days 2 and 3 (reads of this peptide / all reads for the bait, averaged over ….

In the case of chain 1 QGAWLGAPEIWEPLLD [chain 1 P10I], the screen value is 0.00391 average fractional NGS count over selection days 2 and 3 (reads of this peptide / all reads for the bait, averaged over ….

chain 1 QGAWLGAPEGWEPLLD [chain 1 P10G]: the screen value is 0.000535 average fractional NGS count over selection days 2 and 3 (reads of this peptide / all reads for the bait, averaged over ….

Take chain 1 QGAWLGAPEVWEPLLD [chain 1 P10V]: the screen value is 0.00245 average fractional NGS count over selection days 2 and 3 (reads of this peptide / all reads for the bait, averaged over ….

chain 1 QGAWLGAPEQWEPLLD [chain 1 P10Q]: the screen value was 0.000676 average fractional NGS count over selection days 2 and 3 (reads of this peptide / all reads for the bait, averaged over ….

Regarding chain 1 QGAWLGAPETWEPLLD [chain 1 P10T], the screen value was 0.00164 average fractional NGS count over selection days 2 and 3 (reads of this peptide / all reads for the bait, averaged over ….

With chain 1 QGAWLDAPEPWEPLLD [chain 1 G6D], the screen value was 0.000544 average fractional NGS count over selection days 2 and 3 (reads of this peptide / all reads for the bait, averaged over ….

For chain 1 QGAWLGAGEPWEPLLD [chain 1 P8G], the screen value is 0.000266 average fractional NGS count over selection days 2 and 3 (reads of this peptide / all reads for the bait, averaged over ….

As to chain 1 QGAWLGANEPWEPLLD [chain 1 P8N], the screen value was 0.000215 average fractional NGS count over selection days 2 and 3 (reads of this peptide / all reads for the bait, averaged over ….

With chain 1 QGAWLGAHEPWEPLLD [chain 1 P8H], the screen value is 0.00106 average fractional NGS count over selection days 2 and 3 (reads of this peptide / all reads for the bait, averaged over ….

chain 1 QGAWLGAQEPWEPLLD [chain 1 P8Q]: the screen value was 0.000198 average fractional NGS count over selection days 2 and 3 (reads of this peptide / all reads for the bait, averaged over ….

Turning to chain 1 QGAWLGAAEPWEPLLD [chain 1 P8A], the screen value was 0.000677 average fractional NGS count over selection days 2 and 3 (reads of this peptide / all reads for the bait, averaged over ….

Take chain 1 QGAWLGAYEPWEPLLD [chain 1 P8Y]: the screen value was 0.000389 average fractional NGS count over selection days 2 and 3 (reads of this peptide / all reads for the bait, averaged over ….

For the variant chain 1 QGAWLGATEPWEPLLD [chain 1 P8T], the screen value is 0.001 average fractional NGS count over selection days 2 and 3 (reads of this peptide / all reads for the bait, averaged over ….

For the variant chain 1 QGAWLGADEPWEPLLD [chain 1 P8D], the screen value was 0.000161 average fractional NGS count over selection days 2 and 3 (reads of this peptide / all reads for the bait, averaged over ….

With chain 1 QGAWLGAREPWEPLLD [chain 1 P8R], the screen value was 8.2e-05 average fractional NGS count over selection days 2 and 3 (reads of this peptide / all reads for the bait, averaged over ….

As for chain 1 QGAWLGALEPWEPLLD [chain 1 P8L], the screen value was 0.000953 average fractional NGS count over selection days 2 and 3 (reads of this peptide / all reads for the bait, averaged over ….

On to chain 1 QGAWLGAWEPWEPLLD [chain 1 P8W], for which the screen value is 0.000478 average fractional NGS count over selection days 2 and 3 (reads of this peptide / all reads for the bait, averaged over ….

For chain 1 QGAWLGAPEPWKPLLD [chain 1 E12K], the screen value was 0.00114 average fractional NGS count over selection days 2 and 3 (reads of this peptide / all reads for the bait, averaged over ….

With chain 1 QGAWLGAPEPWSPLLD [chain 1 E12S], the screen value is 0.00302 average fractional NGS count over selection days 2 and 3 (reads of this peptide / all reads for the bait, averaged over ….

In the case of chain 1 QGAWLGAPEPWIPLLD [chain 1 E12I], the screen value was 0.000686 average fractional NGS count over selection days 2 and 3 (reads of this peptide / all reads for the bait, averaged over ….

Take chain 1 QGAWLGAPEPWMPLLD [chain 1 E12M]: the screen value was 0.00442 average fractional NGS count over selection days 2 and 3 (reads of this peptide / all reads for the bait, averaged over ….

Consider chain 1 QGAWLGAPEPWDPLLD [chain 1 E12D], for which the screen value is 0.000215 average fractional NGS count over selection days 2 and 3 (reads of this peptide / all reads for the bait, averaged over ….

For the variant chain 1 QGAWLGAPEPWNPLLD [chain 1 E12N], the screen value is 0.00209 average fractional NGS count over selection days 2 and 3 (reads of this peptide / all reads for the bait, averaged over ….

On to chain 1 QGAWLGAPEPWVPLLD [chain 1 E12V], for which the screen value is 0.00994 average fractional NGS count over selection days 2 and 3 (reads of this peptide / all reads for the bait, averaged over ….

For the variant chain 1 QGAWLGAPEPWPPLLD [chain 1 E12P], the screen value was 0.00101 average fractional NGS count over selection days 2 and 3 (reads of this peptide / all reads for the bait, averaged over ….

Regarding chain 1 FGAWLGAPEPWEPLLD [chain 1 Q1F], the screen value was 0.000338 average fractional NGS count over selection days 2 and 3 (reads of this peptide / all reads for the bait, averaged over ….

Consider chain 1 WGAWLGAPEPWEPLLD [chain 1 Q1W], for which the screen value was 0.000692 average fractional NGS count over selection days 2 and 3 (reads of this peptide / all reads for the bait, averaged over ….

On to chain 1 DGAWLGAPEPWEPLLD [chain 1 Q1D], for which the screen value was 0.000709 average fractional NGS count over selection days 2 and 3 (reads of this peptide / all reads for the bait, averaged over ….

chain 1 NGAWLGAPEPWEPLLD [chain 1 Q1N]: the screen value was 0.00294 average fractional NGS count over selection days 2 and 3 (reads of this peptide / all reads for the bait, averaged over ….

For chain 1 MGAWLGAPEPWEPLLD [chain 1 Q1M], the screen value was 0.00503 average fractional NGS count over selection days 2 and 3 (reads of this peptide / all reads for the bait, averaged over ….

On to chain 1 QGAWLGAPEPWESLLD [chain 1 P13S], for which the screen value is 0.000244 average fractional NGS count over selection days 2 and 3 (reads of this peptide / all reads for the bait, averaged over ….

Consider chain 1 QGAWLGAPEPWENLLD [chain 1 P13N], for which the screen value is 0.000298 average fractional NGS count over selection days 2 and 3 (reads of this peptide / all reads for the bait, averaged over ….

Consider chain 1 QGAWLGAPEPWERLLD [chain 1 P13R], for which the screen value was 0.00106 average fractional NGS count over selection days 2 and 3 (reads of this peptide / all reads for the bait, averaged over ….

Turning to chain 1 QGAWLGAPEPWEFLLD [chain 1 P13F], the screen value was 0.0013 average fractional NGS count over selection days 2 and 3 (reads of this peptide / all reads for the bait, averaged over ….

As for chain 1 QGAWLGAPEPWETLLD [chain 1 P13T], the screen value is 0.000368 average fractional NGS count over selection days 2 and 3 (reads of this peptide / all reads for the bait, averaged over ….

Regarding chain 1 QGAWLGAPEPWEDLLD [chain 1 P13D], the screen value was 0.00132 average fractional NGS count over selection days 2 and 3 (reads of this peptide / all reads for the bait, averaged over ….

chain 1 QGAWLGAPEPWEMLLD [chain 1 P13M]: the screen value was 0.00222 average fractional NGS count over selection days 2 and 3 (reads of this peptide / all reads for the bait, averaged over ….

Regarding chain 1 QGAWLGAPNPWEPLLD [chain 1 E9N], the screen value was 0.000953 average fractional NGS count over selection days 2 and 3 (reads of this peptide / all reads for the bait, averaged over ….

For chain 1 QGAWLGAPPPWEPLLD [chain 1 E9P], the screen value is 0.00127 average fractional NGS count over selection days 2 and 3 (reads of this peptide / all reads for the bait, averaged over ….

For the variant chain 1 QGAWLGAPSPWEPLLD [chain 1 E9S], the screen value is 0.00294 average fractional NGS count over selection days 2 and 3 (reads of this peptide / all reads for the bait, averaged over ….

As for chain 1 QGAWLGAPQPWEPLLD [chain 1 E9Q], the screen value is 0.000696 average fractional NGS count over selection days 2 and 3 (reads of this peptide / all reads for the bait, averaged over ….

Consider chain 1 QGAWLGAPMPWEPLLD [chain 1 E9M], for which the screen value is 0.00679 average fractional NGS count over selection days 2 and 3 (reads of this peptide / all reads for the bait, averaged over ….

With chain 1 QGAWLGAPFPWEPLLD [chain 1 E9F], the screen value is 0.000135 average fractional NGS count over selection days 2 and 3 (reads of this peptide / all reads for the bait, averaged over ….

Values taken from PMC12102759 (2025).
